Data as given in US20100196266A1 (published 2010).

How the values were obtained:
human CD74 on cells [1] = molecular target: T1, human CD74 on cells (human, UniProt P04233 1-296); assay: flow cytometry, Kasumi-1 (AML) cells; no mAb 18.2
T1 construct: whole, on cells
T1 sequence (looked up): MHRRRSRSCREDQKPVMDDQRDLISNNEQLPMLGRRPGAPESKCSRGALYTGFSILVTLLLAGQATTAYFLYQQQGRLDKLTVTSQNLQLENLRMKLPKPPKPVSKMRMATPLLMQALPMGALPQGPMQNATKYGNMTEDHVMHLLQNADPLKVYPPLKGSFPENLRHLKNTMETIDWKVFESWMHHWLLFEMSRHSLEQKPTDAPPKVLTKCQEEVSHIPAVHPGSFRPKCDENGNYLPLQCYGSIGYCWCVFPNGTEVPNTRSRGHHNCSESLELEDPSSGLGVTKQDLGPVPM

human CD74 on cells [2] = molecular target: T1, human CD74 on cells; assay: flow cytometry, MN60 (ALL) cells; no mAb 8.1
human CD74 on cells [3] = molecular target: T1, human CD74 on cells; assay: flow cytometry, GDM-1 (AML) cells; no mAb 16.8
human CD74 on cells [4] = molecular target: T1, human CD74 on cells; assay: flow cytometry, WAC (CLL) cells; no mAb 15.8
human CD74 on cells [5] = molecular target: T1, human CD74 on cells; assay: flow cytometry, REH (ALL) cells; no mAb 3.9
human CD74 on cells [6] = molecular target: T1, human CD74 on cells; assay: flow cytometry, HC-1 (hairy cell leukemia) cells; no mAb 4.8
human CD74 on cells [7] = molecular target: T1, human CD74 on cells; assay: flow cytometry, 697 (ALL) cells; no mAb 4.9
human CD74 on cells [8] = molecular target: T1, human CD74 on cells; assay: flow cytometry, Granta-519 (MCL) cells; no mAb 15.3
human CD74 on cells [9] = molecular target: T1, human CD74 on cells; assay: flow cytometry, Kasumi-3 (AML) cells; no mAb 9.6
human CD74 on cells [10] = molecular target: T1, human CD74 on cells; assay: flow cytometry, RS4;11 (ALL) cells; no mAb 6.4
human CD74 on cells [11] = molecular target: T1, human CD74 on cells; assay: flow cytometry, Jeko-1 (MCL) cells; no mAb 14.3
human CD74 on cells [12] = molecular target: T1, human CD74 on cells; assay: indirect flow cytometry, Namalwa cells, FITC-GAM; none 2.91
human CD74 on cells [13] = molecular target: T1, human CD74 on cells; assay: flow cytometry, K562 (CML) cells; no mAb 3.2
human CD74 on cells [14] = molecular target: T1, human CD74 on cells; assay: flow cytometry, MEC-1 (CLL) cells; no mAb 4.7
[15] = molecular target: T2, human leukocyte antigen-DR (HLA-DR) on human lymphoma and leukemia cell lines and human lymphocytes (human); assay: flow cytometry, Kasumi-1 (AML) cells; no mAb 18.2
[16] = molecular target: T2, human leukocyte antigen-DR (HLA-DR) on …; assay: flow cytometry, MN60 (ALL) cells; no mAb 8.1
[17] = molecular target: T2, human leukocyte antigen-DR (HLA-DR) on …; assay: flow cytometry, GDM-1 (AML) cells; no mAb 16.8
[18] = molecular target: T2, human leukocyte antigen-DR (HLA-DR) on …; assay: flow cytometry, WAC (CLL) cells; no mAb 15.8
[19] = molecular target: T2, human leukocyte antigen-DR (HLA-DR) on …; assay: flow cytometry, REH (ALL) cells; no mAb 3.9
[20] = molecular target: T2, human leukocyte antigen-DR (HLA-DR) on …; assay: flow cytometry, HC-1 (hairy cell leukemia) cells; no mAb 4.8
[21] = molecular target: T2, human leukocyte antigen-DR (HLA-DR) on …; assay: flow cytometry, 697 (ALL) cells; no mAb 4.9
[22] = molecular target: T2, human leukocyte antigen-DR (HLA-DR) on …; assay: flow cytometry, Granta-519 (MCL) cells; no mAb 15.3
[23] = molecular target: T2, human leukocyte antigen-DR (HLA-DR) on …; assay: flow cytometry, Kasumi-3 (AML) cells; no mAb 9.6
[24] = molecular target: T2, human leukocyte antigen-DR (HLA-DR) on …; assay: flow cytometry, RS4;11 (ALL) cells; no mAb 6.4
[25] = molecular target: T2, human leukocyte antigen-DR (HLA-DR) on …; assay: flow cytometry, Jeko-1 (MCL) cells; no mAb 14.3
[26] = molecular target: T2, human leukocyte antigen-DR (HLA-DR) on …; assay: indirect flow cytometry, Namalwa cells, FITC-GAM; none 2.91
[27] = molecular target: T2, human leukocyte antigen-DR (HLA-DR) on …; assay: flow cytometry, K562 (CML) cells; no mAb 3.2
[28] = molecular target: T2, human leukocyte antigen-DR (HLA-DR) on …; assay: flow cytometry, MEC-1 (CLL) cells; no mAb 4.7
human CD20 on cells = molecular target: T3, human CD20 on cells (human, UniProt P11836 1-297); assay: indirect flow cytometry, Namalwa cells, FITC-GAM; none 2.91
T3 construct: whole, on cells
T3 sequence (looked up): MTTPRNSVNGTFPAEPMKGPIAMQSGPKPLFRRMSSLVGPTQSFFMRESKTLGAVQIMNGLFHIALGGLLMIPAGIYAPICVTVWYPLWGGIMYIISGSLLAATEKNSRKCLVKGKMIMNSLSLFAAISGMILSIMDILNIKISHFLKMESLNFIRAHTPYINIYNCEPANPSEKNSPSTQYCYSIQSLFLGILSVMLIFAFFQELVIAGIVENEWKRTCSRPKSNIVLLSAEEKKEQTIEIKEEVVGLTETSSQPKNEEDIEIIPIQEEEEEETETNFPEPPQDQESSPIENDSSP

human CD22 on cells [29] = molecular target: T4, human CD22 on cells (human, UniProt P20273 20-847); assay: flow cytometry, Kasumi-1 (AML) cells; no mAb 18.2
T4 construct: whole, on cells

human CD22 on cells [30] = molecular target: T4, human CD22 on cells; assay: flow cytometry, MN60 (ALL) cells; no mAb 8.1
human CD22 on cells [31] = molecular target: T4, human CD22 on cells; assay: flow cytometry, GDM-1 (AML) cells; no mAb 16.8
human CD22 on cells [32] = molecular target: T4, human CD22 on cells; assay: flow cytometry, WAC (CLL) cells; no mAb 15.8
human CD22 on cells [33] = molecular target: T4, human CD22 on cells; assay: flow cytometry, REH (ALL) cells; no mAb 3.9
human CD22 on cells [34] = molecular target: T4, human CD22 on cells; assay: flow cytometry, HC-1 (hairy cell leukemia) cells; no mAb 4.8
human CD22 on cells [35] = molecular target: T4, human CD22 on cells; assay: flow cytometry, 697 (ALL) cells; no mAb 4.9
human CD22 on cells [36] = molecular target: T4, human CD22 on cells; assay: flow cytometry, Granta-519 (MCL) cells; no mAb 15.3
human CD22 on cells [37] = molecular target: T4, human CD22 on cells; assay: flow cytometry, Kasumi-3 (AML) cells; no mAb 9.6
human CD22 on cells [38] = molecular target: T4, human CD22 on cells; assay: flow cytometry, RS4;11 (ALL) cells; no mAb 6.4
human CD22 on cells [39] = molecular target: T4, human CD22 on cells; assay: flow cytometry, Jeko-1 (MCL) cells; no mAb 14.3
human CD22 on cells [40] = molecular target: T4, human CD22 on cells; assay: indirect flow cytometry, Namalwa cells, FITC-GAM; none 2.91
human CD22 on cells [41] = molecular target: T4, human CD22 on cells; assay: flow cytometry, K562 (CML) cells; no mAb 3.2
human CD22 on cells [42] = molecular target: T4, human CD22 on cells; assay: flow cytometry, MEC-1 (CLL) cells; no mAb 4.7

B1: murine LL1 (anti-human CD74) (antibody, V domains shown)
VH: QIQLVQSGPELKKPGETVKVTCKTSGYTFTNYGVNWIKQTPGEGLQWMGWINPNTGEPTFDDDFKGRFAFSLESSASTAFLQISNLKNEDMGTYFCSRSRGKNEAWFAYWGQGTLVTVSE
VL: DVVMTQTPLSLPVSLGDQASISCRSSQSLVHRNGNTYLHWYLQKPGQSPKLLIYTVSNRFSGVPDRFSGSGSGTDFTLKISRVEAEDLGLYFCSQSSHVPPTFGAGTKLEI
mean FL (human CD74 on cells [1]): 23.8 | mean FL (human CD74 on cells [2]): 25.9 | mean FL (human CD74 on cells [3]): 69.5 | mean FL (human CD74 on cells [4]): 43.6 | mean FL (human CD74 on cells [5]): 61.1 | mean FL (human CD74 on cells [6]): 36.7 | mean FL (human CD74 on cells [7]): 20.6 | mean FL (human CD74 on cells [8]): 50.8 | mean FL (human CD74 on cells [9]): 18.4 | mean FL (human CD74 on cells [10]): 24.3 | mean FL (human CD74 on cells [11]): 32.7 | GEO MEAN Fluorescence (human CD74 on cells [12]): 17.3 | mean FL (human CD74 on cells [13]): 7 | mean FL (human CD74 on cells [14]): 44.7

B2: murine monoclonal antibody L243 (mL243) (antibody, V domains shown)
VH: QIQLVQSGPELKKPGETVKISCKASGFTFTNYGMNWVKQAPGKGLKWMGWINTYTREPTYADDFKGRFAFSLETSASTAYLQINNLKNEDTAKYFCARDITAVVPTGFDYWGQGTTLTVSS
VL: DIQMTQSPASLSVSVGETVTITCRASENIYSNLAWYRQKQGKSPQLLVFAASNLADGVPSRFSGSGSGTQYSLKINSLQSEDFGDYYCQHFWTTPWAFGGGTNLEIKR
notes: Murine IgG2a from hybridoma ATCC HB55; also called murine L243; mL234
mean FL [15]: 24 | mean FL [16]: 1220 | mean FL [17]: 1070 | mean FL [18]: 788 | mean FL [19]: 2090 | mean FL [20]: 515 | mean FL [21]: 259 | mean FL [22]: 2110 | mean FL [23]: 565 | mean FL [24]: 152 | mean FL [25]: 1900 | GEO MEAN Fluorescence [26]: 595 | mean FL [27]: 4.9 | mean FL [28]: 1700

B3: 1F5 (murine anti-CD20 mAb) (antibody, V domains shown)
VH: QVQLRQPGAELVKPGASVKMSCKASGYTFTSYNMHWVKQTPGQGLEWIGAIYPGNGDTSYNQKFKGKATLTADKSSSTAYMQLSSLTSEDSAVYYCARSHYGSNYVDYFDYWGQGTTLTVSS
VL: DIVLSQSPAILSASPGEKVTMTCRASSSLSFMHWYQQKPGSSPKPWIYATSNLASGVPARFSGSGSGTSYSLTISRVEAEDAATYFCHQWSSNPLTFGAGTKLELK
GEO MEAN Fluorescence (human CD20 on cells): 3.83

B4: murine LL2 (anti-human CD22) (antibody, V domains shown)
VH: QVQLQESGAELSKPGASVKMSCKASGYTFTSYWLHWIKQRPGQGLEWIGYINPRNDYTEYNQNFKDKATLTADKSSSTAYMQLSSLTSEDSAVYYCARRDITTFYWGQGTTLTVSS
VL: DIQLTQSPSSLAVSAGENVTMSCKSSQSVLYSANHKNYLAWYQQKPGQSPKLLIYWASTRESGVPDRFTGSGSGTDFTLTISRVQVEDLAIYYCHQYLSSWTFGGGTKLEIKR
mean FL (human CD22 on cells [29]): 20.9 | mean FL (human CD22 on cells [30]): 17.1 | mean FL (human CD22 on cells [31]): 28.5 | mean FL (human CD22 on cells [32]): 20.1 | mean FL (human CD22 on cells [33]): 16.8 | mean FL (human CD22 on cells [34]): 17.8 | mean FL (human CD22 on cells [35]): 15.9 | mean FL (human CD22 on cells [36]): 28.6 | mean FL (human CD22 on cells [37]): 13.9 | mean FL (human CD22 on cells [38]): 20.9 | mean FL (human CD22 on cells [39]): 25 | GEO MEAN Fluorescence (human CD22 on cells [40]): 10.5 | mean FL (human CD22 on cells [41]): 4.3 | mean FL (human CD22 on cells [42]): 49
